Measured values taken from the supplement of paper PMC10598134.
± gives the standard deviation.

Assay: collision cross section of modified peptide (TIMS, N2, iRT-aligned); higher = larger / more extended gas-phase ion
Procedure, shortened: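 Collision cross section values rest on the Mason-Schamp equation applied to calibrated, run-aligned mobility data from synthetic peptides. Mobility (1/K0) was calibrated with three reference ions and aligned per run to the median iRT peptide deviation, and 1–3 technical replicates of the most abundant feature per charge state were averaged. Data came from a timsTOF Pro/HT in dda-PASEF mode (nitrogen, ~2.4 mbar) after a 120-min nanoflow C18 gradient at 60 °C.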

[1] = charge state: 2, modification: Methyl (K)
[2] = charge state: 3, modification: Methyl (K)
[3] = charge state: 2, modification: Butyryl
[4] = charge state: 3, modification: Butyryl
[5] = charge state: 2, modification: Methyl (R)
[6] = charge state: 3, modification: Methyl (R)
[7] = charge state: 2, modification: Succinyl
[8] = charge state: 3, modification: Succinyl
[9] = charge state: 2, modification: Biotin
[10] = charge state: 2, modification: Propionyl
[11] = charge state: 2, modification: Acetyl (K)
[12] = charge state: 2, modification: hydroxyisobutyryl
[13] = charge state: 3, modification: hydroxyisobutyryl
[14] = charge state: 3, modification: Dimethyl (K)
[15] = charge state: 2, modification: Crotonyl
[16] = charge state: 3, modification: Crotonyl
[17] = charge state: 2, modification: Trimethyl (K)

## ITLSKHQNVQLPR [_ITLSK(Methyl (K))HQNVQLPR_]
[1]
  collision cross section: 432.38 Å²
[2]
  collision cross section: 510.25 ± 21 Å²

## VNIGQGSHPQKVK [_VNIGQGSHPQK(Butyryl)VK_]
[3]
  collision cross section: 432.28 ± 0.24 Å²
[4]
  collision cross section: 485.89 ± 2.6 Å²

## YRGDYDR [_YR(Methyl (R))GDYDR_]
[5]
  collision cross section: 328.99 ± 0.25 Å²
[6]
  collision cross section: 408.46 ± 0.36 Å²

## SLKLNTAEDAK [_SLK(Gluratylation)LNTAEDAK_]
Charge state: 2, modification: Glutarylation
  collision cross section: 381.67 ± 0.53 Å²

## SGNLTEDDKHNNAK [_SGNLTEDDK(Succinyl)HNNAK_]
[7]
  collision cross section: 424.64 ± 1.1 Å²
[8]
  collision cross section: 478.73 ± 2.5 Å²

## ITESVAETAQTIKK [_ITESVAETAQTIK(Biotin)K_]
[9]
  collision cross section: 443.04 ± 1.4 Å²

## SSGPGGQNVNKVNSK [_SSGPGGQNVNK(Propionyl)VNSK_]
[10]
  collision cross section: 404.47 ± 0.49 Å²

## AGQKLIDVNHYAK [_AGQK(Propionyl)LIDVNHYAK_]
[10]
  collision cross section: 432.1 ± 1.1 Å²
Charge state: 3, modification: Propionyl
  collision cross section: 484.45 Å²

## VGLQVVAVKAPGFGDNR [_VGLQVVAVK(Methyl (K))APGFGDNR_]
[1]
  collision cross section: 454.02 ± 2.2 Å²
[2]
  collision cross section: 491.77 ± 3.2 Å²

## LGSPSGKTGTCR [_LGSPSGK(GlyGly (K))TGTCR_]
Charge state: 3, modification: GlyGly (K)
  collision cross section: 454.35 ± 1.5 Å²

## GSLEKGSPEDK [_GSLEK(Butyryl)GSPEDK_]
[3]
  collision cross section: 371.66 ± 0.71 Å²

## SLFFGGKGAPLQR [_SLFFGGK(Butyryl)GAPLQR_]
[3]
  collision cross section: 406.8 ± 0.75 Å²
[4]
  collision cross section: 492.14 ± 2.1 Å²

## LLIVSTTPYSEKDTK [_LLIVSTTPYSEK(Malonyl)DTK_]
Charge state: 2, modification: Malonyl
  collision cross section: 454.81 ± 0.99 Å²
Charge state: 3, modification: Malonyl
  collision cross section: 468.47 ± 1.2 Å²

## TLDEILQEKK [_TLDEILQEK(Methyl (K))K_]
[1]
  collision cross section: 377.9 ± 1.7 Å²
[2]
  collision cross section: 432.26 ± 5.2 Å²

## VNALKNLQVK [_VNALK(Formyl)NLQVK_]
Charge state: 2, modification: Formyl
  collision cross section: 363.1 ± 0.39 Å²

## LGVATVAKGVCGACK [_LGVATVAK(Acetyl (K))GVCGACK_]
[11]
  collision cross section: 413.53 ± 0.49 Å²

## IISSIEQKEENK [_IISSIEQK(hydroxyisobutyryl)EENK_]
[12]
  collision cross section: 408.38 ± 0.3 Å²
[13]
  collision cross section: 478.99 ± 4 Å²

## VYIASSSGSTAIKK [_VYIASSSGSTAIK(Propionyl)K_]
[10]
  collision cross section: 415.66 ± 0.38 Å²

## VSPASSVDSNIPSSQGYKK [_VSPASSVDSNIPSSQGYK(Dimethyl (K))K_]
[14]
  collision cross section: 536.37 ± 0.42 Å²

## FSHSVQNSERGK [_FSHSVQNSER(Methyl (R))GK_]
[5]
  collision cross section: 405.91 ± 1.3 Å²
[6]
  collision cross section: 465.06 ± 2.1 Å²

## VYVGNLGTGAGK [_VY(Nitro (Y))VGNLGTGAGK_]
Charge state: 2, modification: Nitro (Y)
  collision cross section: 354.85 ± 1.5 Å²

## GEVQVSDKER [_GEVQVSDK(Succinyl)ER_]
[7]
  collision cross section: 361.33 ± 0.24 Å²

## GGPGSTLSFVGKR [_GGPGSTLSFVGK(Crotonyl)R_]
[15]
  collision cross section: 386.64 ± 0.27 Å²
[16]
  collision cross section: 427.61 ± 1.6 Å²

## AYDATHLVK [_AY(Phospho (Y))DATHLVK_]
Charge state: 2, modification: Phospho (Y)
  collision cross section: 354.67 ± 0.75 Å²
Charge state: 3, modification: Phospho (Y)
  collision cross section: 427.71 Å²

## LQAAYAGDKADDIQK [_LQAAYAGDK(Dimethyl (K))ADDIQK_]
Charge state: 2, modification: Dimethyl (K)
  collision cross section: 436.04 ± 1.1 Å²
[14]
  collision cross section: 470.88 ± 1.6 Å²

## STGLELETPSLVPVKK [_STGLELETPSLVPVK(Biotin)K_]
[9]
  collision cross section: 465.71 Å²

## SPSDSGYSYETIGKTTK [_SPSDSGYSYETIGK(Crotonyl)TTK_]
[15]
  collision cross section: 455.39 ± 0.82 Å²
[16]
  collision cross section: 528.2 ± 1.2 Å²

## SPSDSGYSYETIGKTTK [_SPSDSGYSYETIGK(Butyryl)TTK_]
[3]
  collision cross section: 455.62 ± 0.51 Å²
[4]
  collision cross section: 527.5 ± 2.7 Å²

## DYSAPVNFISAGLKK [_DYSAPVNFISAGLK(hydroxyisobutyryl)K_]
[12]
  collision cross section: 443.11 ± 0.56 Å²
[13]
  collision cross section: 536.52 ± 2.1 Å²

## PASGAGAGAGAGKR [_PASGAGAGAGAGK(Succinyl)R_]
[7]
  collision cross section: 354.83 ± 0.23 Å²
[8]
  collision cross section: 462.42 ± 2 Å²

## ASAISIKLGSSK [_ASAISIK(Trimethyl (K))LGSSK_]
[17]
  collision cross section: 386.31 ± 1.1 Å²
Charge state: 3, modification: Trimethyl (K)
  collision cross section: 448.52 ± 3.3 Å²

## PGGEGPQCEKTTDVK [_PGGEGPQCEK(Acetyl (K))TTDVK_]
[11]
  collision cross section: 415.43 ± 2 Å²

## TTEETSKPK [_TTEETSK(Trimethyl (K))PK_]
[17]
  collision cross section: 342 ± 0.055 Å²

## LTEKELAEAASK [_LTEK(Propionyl)ELAEAASK_]
[10]
  collision cross section: 389.08 ± 0.49 Å²
